Source: FireProtDB (doi:10.1074/jbc.274.53.37533)

Conditions: Pseudomonas aeruginosa (strain ATCC 15692 / DSM 22644 / CIP 104116 / JCM 14847 / LMG 12228 / 1C / PRS 101 / PAO1), CD, HCl, whole UniProt chain shown

B1: Cytochrome c-551 wild type, P00099 (protein)
chain: MKPYALLSLLATGTLLAQGAWAEDPEVLFKNKGCVACHAIDTKMVGPAYKDVAAKFAGQAGAEAELAQRIKNGSQGVWGPIPMPPNAVSDDEAQTLAKWVLSQK
With B1 the denaturant m value (pH 5, 25 °C, GdnHCl) was 2.17 kcal/mol/M, the “denaturant midpoint (higher = more stable)” value (pH 5, 25 °C, GdnHCl) was 2.25 M and the Tm (pH 5, Thermal) was 50.4 °C. The “unfolding enthalpy (van 't Hoff)” value (pH 5, Thermal) was 37.6 kcal/mol.
